Reference: paper PMC9046217, “L-tyrosine-bound ThiH structure reveals C–C bond break differences within radical SAM aromatic amino acid lyases” (Nature Communications, 2022)

How the values were obtained:
[1] = molecular target: 2-iminoacetate synthase ThiH from Thermosinus carboxydivorans (Thermosinus carboxydivorans); assay: SEC; preparative gel filtration, HiLoad 16/600 S200 prep-grade column, buffer B (50 mM Tris pH 8, 100 mM NaCl), anaerobic
[2] = molecular target: T1, TcThiH (2-iminoacetate synthase ThiH) (Thermosinus carboxydivorans, UniProt A1HPQ5); assay: X-ray crystal structure, […] Å; assay type: binding; conditions: with L-tyrosine, 5'-deoxyadenosine; bound to the [4Fe-4S] cluster; pH 6.5, anaerobic; SAM cleavage product mimic
T1 construct: gene TcarDRAFT_1903; full length, N-terminal Strep-tag kept (MWSHPQFEKA-SGTFYDVIEDYRHFDF...YKDWQAL, 377 residues printed; printed DNA encodes a His6 tag instead); E. coli BL21(DE3) with isc operon and metK; [4Fe-4S] reconstituted; monomer
T1 sequence (A1HPQ5 entry or part of it): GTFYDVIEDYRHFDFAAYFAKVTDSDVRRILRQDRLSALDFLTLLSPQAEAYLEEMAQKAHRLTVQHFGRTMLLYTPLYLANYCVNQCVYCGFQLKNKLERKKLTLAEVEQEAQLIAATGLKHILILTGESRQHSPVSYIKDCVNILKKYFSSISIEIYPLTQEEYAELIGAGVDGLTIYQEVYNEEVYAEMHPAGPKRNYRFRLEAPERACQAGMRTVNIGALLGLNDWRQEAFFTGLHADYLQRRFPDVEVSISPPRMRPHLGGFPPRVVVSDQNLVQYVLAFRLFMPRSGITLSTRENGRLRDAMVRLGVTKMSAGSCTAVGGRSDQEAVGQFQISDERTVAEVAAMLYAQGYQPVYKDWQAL

stoichiometry N [1]	Molecule	X-ray crystal structure, 1.27 Å [2]
2	2-iminoacetate synthase ThiH from Thermosinus carboxydivorans (enzyme)	
	CSCC[C@H](N)C(=O)O [L-methionine]	L-methionine bound to the radical SAM [Fe4S4]-cluster and L-tyrosine (Fig. 2b)
